The term Kd denotes the concentration at which binding is half-saturated.

The source of these data is paper PMC6168491, “Sin3A recruits Tet1 to the PAH1 domain via a highly conserved Sin3-Interaction Domain” (Scientific Reports, 2018).

This test addresses T1, PAH1(115–212) for NMR (UniProt Q60520 115-212).
T1 construct: Sin3A PAH1 domain, residues 115–212; Same construct as m29; also called apo-PAH1; 15N-labelled PAH1(115–212); source: 15N labelled in M9 minimal media
T1 sequence (looked up): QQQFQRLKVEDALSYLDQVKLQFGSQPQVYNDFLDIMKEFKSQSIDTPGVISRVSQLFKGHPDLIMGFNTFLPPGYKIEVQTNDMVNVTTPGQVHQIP
Kind of test: NMR titration; 15N-HSQC of 150 µM 15N-labelled PAH1(115–212) with 150 µM unlabelled Tet1(878–911) (1:1; also sub-stoichiometric ratio); 303 K; 20 mM Tris-HCl pH 7.4, 50 mM NaCl, 1 mM DTT; average minimal shift analysis.

Substitutions are numbered along the chain they refer to. In names and notes the source's numbering stands. Like-named read-outs stand apart in the source and are kept apart here.

“Tet1-SID(878–911) L897A for NMR (from UniProt Q3URK3 861-894) (domain or fragment)”: the Δδmin (average minimal shift, relative to the WT complex) stood at 0.118 and the Δδmin (average minimal shift, relative to the apo-protein) was determined as 0.061.

B1: Tet1-SID(878–911) for NMR (domain or fragment, UniProt Q3URK3 861-894, looked up)
chain: LSLMKDRRLTLEQVVAIEALTQLSEAPSESSSPS
notes: Same construct as m24; also called WT
B1: the Kd (both partners purified) was less than 100 nM.

B2: Tet1-SID(878–911) L900A for NMR (domain or fragment, UniProt Q3URK3 861-894, looked up)
chain: B1 chain with L23A
notes: Tag removal for NMR was conducted as needed
As to B2, the “Δδmin (average minimal shift, relative to the WT complex)” value (both partners purified) is 0.074.

B3: Tet1-SID(878–911) T898A for NMR (domain or fragment, UniProt Q3URK3 861-894, looked up)
chain: B1 chain with T21A
notes: as for B2
In the case of B3, for the setting “both partners purified”, the “Δδmin (average minimal shift, relative to the WT complex)” value turned out to be 0.026.

B4: Tet1-SID(878–911) I894A for NMR (domain or fragment, UniProt Q3URK3 861-894, looked up)
chain: B1 chain with I17A
notes: as for B2
On to B4, for which the “Δδmin (average minimal shift, relative to the WT complex)” value (both partners purified) stood at 0.061.

B5: Tet1-SID(878–911) T898E for NMR (domain or fragment, UniProt Q3URK3 861-894, looked up)
chain: B1 chain with T21E
notes: as for B2
Take B5: the “Δδmin (average minimal shift, relative to the WT complex)” value (both partners purified) was 0.038.
